Experimental data taken from the DeepSol protein solubility set.

test: soluble on expression in E. coli; label from the status in PepcDB or PDB records

Soluble on expression in E. coli, not soluble:
MHHIETTKLSRRAFLKKLTRTSFSAALMMAAASGYARWIEPAELTVTHHALSHPLIPKSFAGVKLLQFSDLHLGHYYGLERFYRIMGRINELGPDLVVFTGDLLHEANRYPHVDAVAEALAGVRAPLGKFCIYGNHDHGGYGTDIYRRLMERAGFRVLVNEHALVRRGHGAIAIAGSDDMMLGRPDWSKMTNGIPRATYTIALVHEPDGAIEARRFPIHVQLSGHSHGGQIQLPFIGPLITPPLSERYYEGFYHVGGLLLYVNRGLGTTRVPLRFFAPPELTVFSLAPG
MHHLILGYGYCGYYLAQELLGHHQQVTVVSRQLKKELELSKLQHISHDLEYPFHWSEPDSIIYYLIPPPSQGTCDTFLQQFLNQSSLNAKKIIYFGSSGVYGNHQGAWVDELSACIIDSPRQQRRLDAEQQWLAYCQQHNKELSLLRIAGIYGPNRIPADAAKSKIPIIKPTEAPFTNHIFVKDLALIAYLLGQKQTTSAVYNVADGNPTHMGELQQTVANALGIESASYESFEQAWEKASPMKREFMRASKRLKIDLLKTALGEDIQFTSLYDAVKQSL
MHIESPIKRRQSTRIYVGNVPIGDGAPIAVQSMTNTRTTDVDATVAQIKSLEKVGADIVRVSVPTMDAAEAFKVIKQQVSVPLVADIHFDYRIALQVAEYGVDCLRINPGNIGNEQRIRSVVDCARDKNIPIRIGVNGGSLEKDIQAKYKEPTAEALLESAMRHVDILDRLNFDQFKVSVKASDVFLAVDSYRLLAKQIAQPLHLGITEAGGARAGSVKSAVGLGMLLSEGIGDTLRISLAADPVEEIKVGFDILKSLRIRSRGINFIACPTCSRQEFDVIATVNELEQRLEDLITPMDVSLIGCVVNGPGEAEVSHMGIAGSNRKSAFYEDGVRQKERFDNDNIVDQLEAKIRAKAATLSKENQIDINQID
MHIQRKSTMSKCSADETPVCCCMDVGTIMDNSDCTASYSRVFANRAEAEQTLAALTEKARSVESEPCKITPTFTEESDGVRLDIDFTFACEAEMLIFQLGLR
MHPTAAALIRTLGLAPHPEGGHYRRVYASTRQVLDDSGAPPRPALTAIRFLLCAGEASRWHRVDAEECWHWQQGAPLELLIFDEASGQLRREVLDAAERGDAMHVVPAGCWQAARSLGDFTLVGCTVSPGFVWEGFALLEDGSPLAAQLAALVAEGAAPEPPTLPLEHHHHHH
MHRYLWQQADGKRHVYDTTRHRIQAEHSFTALCGETVIPRTERGDLTAGLWFDGECPVCTIALAKALGWPMRELADLAHRFTWSPELLARLAEILHCTSGEVAELTGARTVDT
MHTVVMTKGVPDFREGQVSFDEDGHLERGKTPTVMNPNDKHALRAAFQTKVRNGGHVSLMSMGPPGYKEVLQEGMRDVYADDLYLLSDREMGAADTWATAMTVATGLQNLEEQPDLVFAGFKTADGETGHTGPQTCWCLDWPIITHVLSLDIDEDAGTVRAKRLVDGDISEIETVEAPMPCFIVADPEFEPTYRKASHRLKHKDLREETQERATEYEEYLTIWDHEGLNLDPDYIGLDGSPTIVAGVDPIPKAPSEREATVIEADEREALEPVLDELTPYAAGD

Soluble on expression in E. coli, soluble:
MHHHHHHNEEFRPEMLQGKKVIVTGASKGIGREMAYHLSKMGAHVVLTARSEEGLQKVVSRCLELGAASAHYIAGTMEDMTFAEQFIVKAGKLMGGLDMLILNHITQTSLSLFHDDIHSVRRVMEVNFLSYVVMSTAALPMLKQSNGSIAVISSLAGKMTQPMIAPYSASKFALDGFFSTIRTELYITKVNVSITLCVLGLIDTETAMKEISGIINAQASPKEECALEIIKGTALRKSEVYYDKSPLTPILLGNPGRKIMEFFSLRYYNKDMFVSN
MHHHHHHQYKLALNGKTLKGETTTEAVDAATAEKVFKQYANDNGVDGEWTYDDATKTFTVTEGSQWQPQLQQLRDMGIQDDELSLRALQATGGDIQAALELIFAGGAP
MHHHHHHSSGRENLYFQGDPRRRNILRSLRRNTKKPKPKPRPSITKATWESNYFGVPLTTVVTPEKPIPIFIERCIEYIEATGLSTEGIYRVSGNKSEMESLQRQFDQDHNLDLAEKDFTVNTVAGAMKSFFSELPDPLVPYNMQIDLVEAHKINDREQKLHALKEVLKKFPKENHEVFKYVISHLNKVSHNNKVNLMTSENLSICFWPTLMRPDFSTMDALTATRTYQTIIELFIQQCPFFFYNR
MHHHHHHSSGRENLYFQGQKDGIFKVMLVGESGVGKSTLAGTFGGLQGDSAHEPENPEDTYERRIMVDKEEVTLVVYDIWEQGDAGGWLRDHCLQTGDAFLIVFSVTDRRSFSKVPETLLRLRAGRPHHDLPVILVGNKSDLARSREVSLEEGRHLAGTLSCKHIETSAALHHNTRELFEGAVRQIRLRRGRNHA
MHHHHHHSSGRENLYFQGSTRGKVVLHTSLGDLDVELWARECPLACRNFVQLCLEGYYVNTIFHRVVKDFIVQGGDPTGTGRGGADTTFDGKPFDVETHPRLKFRYRGLVGVANLGRSSKDAENDERGRSLGTNGNQFFITLARADVLNNAYTLFGKVTGHTLYNLMKFNDLEVGKEDRPMTPPFIKSVDVLWNPFEDLVPRRLPDAPPAQKDERKRARAAGGRTTEGRARS
MHHHHHHSSGVDLGTENLYFQSMATGQKLMRAVRVFEFGGPEVLKLRSDIAVPIPKDHQVLIKVHACGVNPVETYIRSGTYSRKPLLPYTPGSDVAGVIEAVGDNASAFKKGDRVFTSSTISGGYAEYALAADHTVYKLPEKLDFKQGAAIGIPYFTAYRALIHSACVKAGESVLVHGASGGVGLAACQIARAYGLKILGTAGTEEGQKIVLQNGAHEVFNHREVNYIDKIKKYVGEKGIDIIIEMLANVNLSKDLSLLSHGGRVIVVGSRGTIEINPRDTMAKESSIIGVTLFSSTKEEFQQYAAALQAGMEIGWLKPVIGSQYPLEKVAEAHENIIHGSGATGKMILLL
MHHHHHHSSGVDLGTENLYFQSNAMKKVLIVFGTRPEAIKMAPLVQQLCQDNRFVAKVCVTGQHREMLDQVLELFSITPDFDLNIMEPGQTLNGVTSKILLGMQQVLSSEQPDVVLVHGDTATTFAASLAAYYQQIPVGHVEAGLRTGNIYSPWPEEGNRKLTAALTQYHFAPTDTSRANLLQENYNAENIFVTGNTVIDALLAVREKIHTDMDLQATLESQFPMLDASKKLILVTGHRRESFGGGFERICQALITTAEQHPECQILYPVHLNPNVREPVNKLLKGVSNIVLIEPQQYLPFVYLMDRAHIILTDSGGIQEEAPSLGKPVLVMRETTERPEAVAAGTVKLVGTNQQQICDALSLLLTDPQAYQAMSQAHNPYGDGKACQRIADILAK
MHHHHHHSSGVDLGTENLYFQSNAMTNIQKRFYKGRVALNVLANNIENAKDIFEAAEGYVVVGVLSKDYPTVEEAVTAMKAYGKEIDDAVSIGLGAGDNRQAAVVAEIAKHYPGSHINQVFPSVGATRANLGEKDSWINSLVSPTGKVGYVNISTGPISAAGEEKAIVPIKTAIALVRDMGGNSLKYFPMKGLAHEEEYRAVAKACAEEGFALEPTGGIDKENFETIVRIALEANVEQVIPHVYSSIIDKETGNTKVEAVRELLAVVKKLVDQYA
MHHHSHHHHSHMDVTIQHPWFKRTLGPFYPSRLFDQFFGEGLFEYDLLPFLSSTISPYYRQSLFRTVLDSGISEVRSDRDKFVIFLDVKHFSPEDLTVKVQDDFVEIHGKHNERQDDHGYISREFHRRYRLPSNVDQSALSCSLSADGMLTFCGPKIQTGLDATHAERAIPVSREEKPTSAPSSLEIRLLLEIRLL
MHKVQRSVLVPYSAAQMFDLVADVEKYPEFMPWCGGAEVHSRSEHGMQASILISFAGLKQRFSTRNTHDYPQRIDLELVDGPFSMLVGHWVFQPLAEDACKVLFTLEYAFSNRALEMVVGPVFNRIAASFIDSFTKRAQAKYGEAAALEHHHHHH
MHKVSATLLIIDDDEVVRESLAAYLEDSNFKVLQALNGLQGLQIFESEQPDLVICDLRMPQIDGLELIRRIRQTASETPIIVLSGAGVMSDAVEALRLGAADYLIKPLEDLAVLEHSVRRALDRAYLRVENQRYRDKLEAANRELQASLNLLQEDQNAGRQVQMNMLPVTPWSIEGLEFSHRIIPSLYLSGDFVDYFRVDERRVAFYLADVSGHGASSAFVTVLLKFMTTRLLYESRRNGTLPEFKPSEVLAHINRGLINTKLGKHVTMLGGVIDLEKNSLTYSIGGHLPLPVLFVEGQAGYLEGRGLPVGLFDDATYDDRVMELPPSFSLSLFSDGILDVLPGATLKEKEASLPEQVAAAGGTLDGLRQVFGLANLAEMPDDIALLVLSRNLA
MHLYSSDFPLMMDEKELYEKWMRTVEMLKAEGIIRSKEVERAFLKYPRYLSVEDKYKKYAHIDEPLPIPAGQTVSAPHMVAIMLEIANLKPGMNILEVGTGSGWNAALISEIVKTDVYTIERIPELVEFAKRNLERAGVKNVHVILGDGSKGFPPKAPYDVIIVTAGAPKIPEPLIEQLKIGGKLIIPVGSYHLWQELLEVRKTKDGIKIKNHGGVAFVPLIGEYGWKEHHHHHH
MHNMFPALTKTLSLQGYKIINSQTGSAAWSCGRRWFSSDKDDHDDVVTRIKIAPIKRTNEPLDKKRARLIYQSRKRGILETDLLLSGFAAKYLKKMNEEELEEYDSLLNELDWDIYYWATKNFKTSPLPDKWANSKLLKQLQEFSENKEKEILSMPDLSKYQ
MHQVISATTNPAKIQAILQAFEEIFGEGSCHITPVAVESGVPEQPFGSEETRAGARNRVDNARRLHPQADFWVAIEAGIDDDATFSWVVIDNGVQRGEARSATLPLPAVILDRVRQGEALGPVMSQYTGIDEIGRKEGAIGVFTAGKLTRSSVYYQAVILALSPFHNAVYR
MHRLRNLREDVSDGSLGHGGGGLMYDVVVVGAGPAGSMAAKTAAEQGLKVLLVEKRQEIGTPVRCAEGISRESIEKFFEVDKKWIAAEVTGAKIYAPNKTEIVMSEEMAGNEVGYVLERKIFDRHVARLAAKAGAEVYVKTAMVDFERKDGKVKVKLRRLGEDWEVETKILIGADGVESKIGRKAGIIKTLKLNEVESCAQYLMTGLDIDESYTYFYLGRELAPGGYAWIFPKGNGSANVGIGVLPKMAERTAKEYLDAFIEKEGIEGKIVEFVAGAVPVYGEIETAVADNIMLAGDAAYHADPITGGGIANALSAGYYAGKVAAEAVQKNDFSADFLRRYDELWKNDFGKKLRRNKKLQLKFIDMDDALLNKLAGAIAGKNLREMSVAAIVKELLKAHPKLLWDLKDLFLEHHHHHH
MHTLEQLRAGALTGIQALKLSENLTEVPAEVFQLADTLEILDLSGNRLHSLPQEMACLTRLRILFLSDNDFTIFPEVLKELKQLDMLGIKANNIQVIAEDAIPVSLRWLILTDNCIEALPVSIGRCTKLQKVMLAGNQLSGLPDELAACRNIELLRISANNMHTFPEVVKQLPRLAWLAYSSNPFQVNRSSFNALPVIAWENVALMEQLGAGASGIIYKARLNTGKSPEDVAVKVFKGAVTSDGLPEDEMTACMQAGRNSHLVSVLGVIGGHPEGMHGLVMELIPAEYKNLGRPPSFVTCTRDTFAAGTRFTAQQMLLILKGVAEAAKQLHDNGIMHGDLYAHNTLINEKYHSLFGDFGAATLYDKNNRDEAFFLERLDVRAFGCLADDLLQYSVCTKEDEWCLETLKRLSAGCMNEEPDKRPAFNTIVYELQLLQNTHLEHHHHHH
MIAITGASGQLGRLVIAQLLEKVPASDIVALVRDVNKVADLSAKGVQVKAADYNQPEALAFALQGVDKVLLISSSEVGQRAAQHRNVIEAAVKAGVKLVAYTSLLHADKSPLALAEEHRQTEALLKDSGLPHVLLRNGWYTENYAASIPAALEHGVFIGSAGEGKITSATREDFAAAAVAVLTQEGQAGKVYELAGDEPYTLVELAAEISKQSGKSIGYQNLSGAEFTAALVSAGLPDVFAQIIADSDVGASKGGLFDGGKHLSQLIGRPTTPLSAVVKATLK
